# According to IntAct's records for PubMed 20223215:
# B1: Low-density lipoprotein receptor-related protein 8 (Homo sapiens), Q14114 (parent)
# chain: MGLPEPGPLRLLALLLLLLLLLLLQLQHLAAAAADPLLGGQGPAKDCEKDQFQCRNERCIPSVWRCDEDDDCLDHSDEDDCPKKTCADSDFTCDNGHCIHERWKCDGEEECPDGSDESEATCTKQVCPAEKLSCGPTSHKCVPASWRCDGEKDCEGGADEAGCATLCAPHEFQCGNRSCLAAVFVCDGDDDCGDGSDERGCADPACGPREFRCGGDGGGACIPERWVCDRQFDCEDRSDEAAELCGRPGPGATSAPAACATASQFACRSGECVHLGWRCDGDRDCKDKSDEADCPLGTCRGDEFQCGDGTCVLAIKHCNQEQDCPDGSDEAGCLQGLNECLHNNGGCSHICTDLKIGFECTCPAGFQLLDQKTCGDIDECKDPDACSQICVNYKGYFKCECYPGYEMDLLTKNCKAAAGKSPSLIFTNRHEVRRIDLVKRNYSRLIPMLKNVVALDVEVATNRIYWCDLSYRKIYSAYMDKASDPKEQEVLIDEQLHSPEGLAVDWVHKHIYWTDSGNKTISVATVDGGRRRTLFSRNLSEPRAIAVDPLRGFMYWSDWGDQAKIEKSGLNGVDRQTLVSDNIEWPNGITLDLLSQRLYWVDSKLHQLSSIDFSGGNRKTLISSTDFLSHPFGIAVFEDKVFWTDLENEAIFSANRLNGLEISILAENLNNPHDIVIFHELKQPRAPDACELSVQPNGGCEYLCLPAPQISSHSPKYTCACPDTMWLGPDMKRCYRAPQSTSTTTLASTMTRTVPATTRAPGTTVHRSTYQNHSTETPSLTAAVPSSVSVPRAPSISPSTLSPATSNHSQHYANEDSKMGSTVTAAVIGIIVPIVVIALLCMSGYLIWRNWKRKNTKSMNFDNPVYRKTTEEEDEDELHIGRTAQIGHVYPAAISSFDRPLWAEPCLGETREPEDPAPALKELFVLPGEPRSQLHQLPKNPLSELPVVKSKRVALSLEDDGLP
# Variants of: B1
# Details: with reln_mouse Reln
row,effect of a mutation on the interaction,Variant
1,decreasing interaction,D50A
2,decreasing interaction,V63A
3,disrupting interaction,W64H
4,disrupting interaction,D69N
5,disrupting interaction,P61A
